# Measurements: patent US20140105889A1 (published 2014)
# Where a chain is given by its changes, count along the chain named.
# T1: human FcγRIIb (human, UniProt P31994 43-217, limits assumed)
# T1 construct: also called FcγIIB; hFcgRIIb
# T1 sequence: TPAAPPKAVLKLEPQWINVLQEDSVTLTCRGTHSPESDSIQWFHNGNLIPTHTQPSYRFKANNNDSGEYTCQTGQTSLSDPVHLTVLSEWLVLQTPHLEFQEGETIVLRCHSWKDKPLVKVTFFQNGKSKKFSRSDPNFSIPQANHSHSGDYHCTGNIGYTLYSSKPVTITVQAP
# T2: FcγRIIb (human, UniProt P31994 43-217, limits assumed)
# T2 construct: also called FcγIIB; FcgRIIb
# T2 sequence: T1 sequence
# T3: FcγRIIa type H (human, UniProt P12318 36-217)
# T3 construct: also called FcγRIIaH; FcγRIIa(H)
# T3 sequence: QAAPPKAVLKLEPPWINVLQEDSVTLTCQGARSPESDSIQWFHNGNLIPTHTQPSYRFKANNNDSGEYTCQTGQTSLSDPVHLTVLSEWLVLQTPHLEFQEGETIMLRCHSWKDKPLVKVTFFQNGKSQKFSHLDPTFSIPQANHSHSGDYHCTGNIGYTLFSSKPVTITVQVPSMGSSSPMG
# T4: human FcγRIIb (human, UniProt P31994 43-217, limits assumed)
# T4 construct: also called hFcgRIIb
# T4 sequence: T1 sequence
# T5: mouse FcγRIII (mouse, UniProt P08508 31-215)
# T5 construct: Bought; also called mFcgRIII
# T5 sequence (looked up): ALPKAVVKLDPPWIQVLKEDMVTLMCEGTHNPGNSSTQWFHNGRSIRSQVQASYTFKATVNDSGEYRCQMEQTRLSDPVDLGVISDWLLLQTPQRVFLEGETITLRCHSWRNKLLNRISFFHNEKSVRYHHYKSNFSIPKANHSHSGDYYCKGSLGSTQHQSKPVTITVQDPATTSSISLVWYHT
# T6: mouse FcγRIIb (mouse, UniProt P08101 40-217, limits assumed)
# T6 construct: Bought; also called mFcgRIIb
# T6 sequence (looked up): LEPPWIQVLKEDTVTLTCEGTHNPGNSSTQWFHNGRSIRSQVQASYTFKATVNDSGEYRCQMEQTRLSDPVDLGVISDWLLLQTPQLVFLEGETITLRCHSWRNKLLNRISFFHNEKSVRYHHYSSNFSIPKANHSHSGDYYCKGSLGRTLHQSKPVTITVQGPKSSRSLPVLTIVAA
# T7: mouse FcγRI (mouse, UniProt P26151 25-297)
# T7 construct: Bought; also called mFcgRI
# T7 sequence (looked up): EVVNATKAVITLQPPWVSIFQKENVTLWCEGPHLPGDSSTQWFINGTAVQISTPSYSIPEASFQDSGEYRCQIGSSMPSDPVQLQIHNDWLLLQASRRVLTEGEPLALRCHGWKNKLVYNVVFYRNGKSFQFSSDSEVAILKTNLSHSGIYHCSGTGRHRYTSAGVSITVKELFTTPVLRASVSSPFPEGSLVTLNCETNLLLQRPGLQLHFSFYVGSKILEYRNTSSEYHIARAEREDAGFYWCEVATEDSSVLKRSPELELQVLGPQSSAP
# B1: IL6R-BP132/IL6R-L (antibody, human IgG1)
# heavy: QVQLQESGPGLVKPSETLSLTCAVSGHSISHDHAWSWVRQPPGEGLEWIGFISYSGITNYNPSLQGRVTISRDNSKNTLYLQMNSLRAEDTAVYYCARSLARTTAMDYWGEGTLVTVSSASTKGPSVFPLAPSSKSTSGGTAALGCLVKDYFPEPVTVSWNSGALTSGVHTFPAVLQSSGLYSLSSVVTVPSSSLGTQTYICNVNHKPSNTKVDKKVEPKSCDKTHTCPPCPAPDLLGGDSVFLFPPKPKDTLMISRTPEVTCVVVDVSHEDPEVKFNWYVDGVEVHNAKTKPREEQYNSTYRVVSVLTVLHQDWLNGKEYKCKVSNAALPKPIEKTISKAKGQPREPQVYTLPPSRDELTKNQVSLTCLVKGFYPSDIAVEWESNGQPENNYKTTPPVLDSDGSFFLYSKLTVDKSRWQQGNVFSCSVMHEALHNHYTQESLSLSP
# light: DIQMTQSPSSLSASVGDRVTITCRASQDISSYLNWYQQKPGKAPKLLIYYTSRLHSGVPSRFSGSGSGTDFTFTISSLQPEDIATYYCQQGNTLPYTFGQGTKVEIK
# notes: copies: 2 + 2
# B2: IL6R-BP149/IL6R-L (antibody, human IgG1)
# heavy: B1 heavy with L236Y, G239D, Y298D
# light: B1 light
# notes: EU numbering
# B3: GpH7-B3/GpL16-k0 (antibody, human IgG1)
# heavy: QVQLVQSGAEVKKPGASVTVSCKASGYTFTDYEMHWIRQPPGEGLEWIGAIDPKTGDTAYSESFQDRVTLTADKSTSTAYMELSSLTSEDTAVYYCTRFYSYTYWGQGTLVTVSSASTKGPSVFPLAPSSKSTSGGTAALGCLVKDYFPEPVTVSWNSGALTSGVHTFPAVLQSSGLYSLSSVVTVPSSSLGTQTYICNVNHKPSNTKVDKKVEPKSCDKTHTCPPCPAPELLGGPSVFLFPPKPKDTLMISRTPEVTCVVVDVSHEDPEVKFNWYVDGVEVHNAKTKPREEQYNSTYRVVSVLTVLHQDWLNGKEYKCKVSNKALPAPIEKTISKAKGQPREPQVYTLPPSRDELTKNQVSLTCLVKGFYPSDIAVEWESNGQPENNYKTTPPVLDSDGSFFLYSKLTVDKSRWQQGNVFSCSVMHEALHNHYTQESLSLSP
# light: DIVMTQSPLSLPVTPGEPASISCQASESLVHSNRNTYLHWYLQKPGQSPQLLIYKVSNRFSGVPDRFSGSGSGTDFTLKISRVEAEDVGVYYCSQNTHVPPTFGQGTKVEIE
# notes: Anti-glypican-3 antibody, human IgG1 constant region B3
# B4: IL6R-F11/IL6R-L (antibody, human IgG1)
# heavy: not shown
# light: B1 light
# notes: copies: 2 + 2
# B5: IL6R-B3/IL6R-L (antibody, human IgG1)
# heavy: not shown
# light: B1 light
# notes: copies: 2 + 2
# B6: mPM1-mIgG1-mF39 (antibody)
# heavy: DVQLQESGPVLVKPSQSLSLTCTVTGYSITSDHAWSWIRQFPGNKLEWMGYISYSGITTYNPSLKSRISITRDTSKNQFFLQLNSVTTGDTSTYYCARSLARTTAMDYWGQGTSVTVSSAKTTPPSVYPLAPGSAAQTNSMVTLGCLVKGYFPEPVTVTWNSGSLSSGVHTFPAVLQSDLYTLSSSVTVPSSTWPSETVTCNVAHPASSTKVDKKIVPRDCGCKPCICTVKEVSKVFIFPPKPKDVLYITLEPKVTCVVVDISKDDPEVQFSWFVDDVEVHTAQTQPREEQFNSTFRSVSELPIMHQDWLNGKEFKCRVNSAAFPAPIEKTISKTKGRPKAPQVYTIPPPKEQMAKDKVSLTCMITDFFPEDITVEWQWNGQPAENYKNTQPIMDTDGSYFVYSKLNVQKSNWEAGNTFTCSVLHEGLKNHHTEKSLSHSPGK
# light: DIQMTQTTSSLSASLGDRVTISCRASQDISSYLNWYQQKPDGTIKLLIYYTSRLHSGVPSRFSGSGSGTDYSLTINNLEQEDIATYFCQQGNTLPYTFGGGTKLEIKRADAAPTVSIFPPSSEQLTSGGASVVCFLNNFYPKDINVKWKIDGSERQNGVLNSWTDQDSKDSTYSMSSTLTLTKDEYERHNSYTCEATHKTSTSPIVKSFNRNEC
# notes: copies: 2 + 2
# B7: mPM1-mIgG1-mF40 (antibody)
# heavy: B6 heavy with K429H, N430W
# light: B6 light
# notes: copies: 2 + 2
# Assays:
# human FcγRIIb [1] = molecular target: T1, human FcγRIIb; assay: SPR KD for FcγRIIb of parent IL6R-B3/IL6R-L divided by that of this variant
# From the text: (§1) Furthermore, KD(IIaR)/KD(IIb) and KD(IIaH)/KD(IIb) in the table respectively represent the value obtained by dividing the KD value of each variant for FcγRIIaR by the KD value of each variant for FcγRIIb, and the value obtained by dividing the KD value of each variant for FcγRIIaH by the KD value of each variant for FcγRIIb.
# human FcγRIIb [2] = molecular target: T1, human FcγRIIb; assay: ratio of this variant's SPR KD for FcγRIIaR to its KD for FcγRIIb
# From the text: as §1
# human FcγRIIb [3] = molecular target: T1, human FcγRIIb; assay: SPR (Biacore), captured antibody, FcγR as analyte, 25 C
# From the text: as §1
# human FcγRIIb [4] = molecular target: T1, human FcγRIIb; assay: ratio of this variant's SPR KD for FcγRIIaH to its KD for FcγRIIb
# From the text: as §1
# FcγRIIb [5] = molecular target: T2, FcγRIIb; assay: ratio of SPR KD values of this variant (FcγRIIaH over FcγRIIb)
# From the text: as §1
# FcγRIIb [6] = molecular target: T2, FcγRIIb; assay: ratio of SPR KD values; parent polypeptide is IL6R-B3/IL6R-L
# From the text: as §1
# FcγRIIa type H = molecular target: T3, FcγRIIa type H; assay: SPR (Biacore), captured antibody, FcγR as analyte, method of Example 14
# FcγRIIb [7] = molecular target: T2, FcγRIIb; assay: ratio of SPR KD values of this variant (FcγRIIaR over FcγRIIb)
# From the text: as §1
# human FcγRIIIa(F) = molecular target: T8, human FcγRIIIa(F) (human, UniProt P08637 17-208, limits assumed); assay: SPR (Biacore), captured antibody, FcgR as analyte, HBS-EP+, 25 C; bound amount corrected for captured antibody, relative to GpH7-G1d/GpL16-k0
# T8 construct: also called hFcgRIIIa(F); allotype F158
# Method: Interaction between each modified antibody and Fcγ receptor prepared in the manner described above was analyzed using the Biacore T100 (GE Healthcare), Biacore T200 (GE Healthcare), Biacore A100 or Biacore 4000. HBS-EP+ (GE Healthcare) was used for the running buffer, and measurements were carried out at 25° C. The chips used were chips in which antigen peptides, Protein A (Thermo Scientific), Protein A/G (Thermo Scientific) or Protein L (ACTIGEN or BioVision) were immobilized on the Series S Sensor Chip CM5 (GE Healthcare) or Series S Sensor Chip CM4 (GE Healthcare) by amine coupling, or chips in which preliminarily biotinylated antigen peptides were allowed to interact and then immobilized on the Series S Sensor Chip SA (certified) (GE Healthcare). The target antibodies were captured on these sensor chips, Fcγ receptor diluted with the running buffer was allowed to interact, followed by measurement of the amount of bound antibody. The amounts bound were compared between antibodies. However, since the amount of Fcγ receptor bound depends on the amount of captured antibody, the values used for comparison were first corrected by dividing the amount of Fcγ receptor bound by the captured amount of each antibody. Through reaction with 10 mM glycine-HCl at pH 1.5, the sensor chips were regenerated by washing off antibody captured on the sensor chips and used repeatedly.
# human FcγRIIb [8] = molecular target: T4, human FcγRIIb; assay: SPR (Biacore) KD; ratio against the KD for FcγRIIaH
# human FcγRIIb [9] = molecular target: T4, human FcγRIIb; assay: SPR (Biacore) KD; ratio against the KD for FcγRIIaR
# mouse FcγRIII = molecular target: T5, mouse FcγRIII; assay: SPR (Biacore), protein L capture, pH 7.4, 25 C
# mouse FcγRIIb = molecular target: T6, mouse FcγRIIb; assay: SPR (Biacore), protein L capture, pH 7.4, 25 C
# mouse FcγRI = molecular target: T7, mouse FcγRI; assay: SPR (Biacore), protein L capture, pH 7.4, 25 C
# T8 sequence (P08637 other isoform, or with tags, fused parts or gaps limits assumed): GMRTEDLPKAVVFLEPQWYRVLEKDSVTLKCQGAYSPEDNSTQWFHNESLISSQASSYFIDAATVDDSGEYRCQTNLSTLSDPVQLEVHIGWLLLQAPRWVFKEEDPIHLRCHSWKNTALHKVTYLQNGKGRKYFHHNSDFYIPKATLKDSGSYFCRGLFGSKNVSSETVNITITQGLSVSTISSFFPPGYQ
binder,measurement,setting,value
B1,KD(IIb) of the parent polypeptide/KD(IIb) of the altered polypeptide,human FcγRIIb [1],6.4
same,KD (IIaR)/KD (IIb),human FcγRIIb [2],21.5
same,Kd,human FcγRIIb [3],270 nM
same,KD (IIaH)/KD (IIb),human FcγRIIb [4],61.1
B2,KD (IIaH)/KD (IIb),FcγRIIb [5],89.9
same,KD(IIb) of the parent polypeptide/KD(IIb) of the altered polypeptide,FcγRIIb [6],53.1
same,Kd,FcγRIIa type H,5400 nM
same,KD (IIaR)/KD (IIb),FcγRIIb [7],13
B3,relative binding activity (bound amount / bound amount of GpH7-G1d/GpL16-k0 x 100),human FcγRIIIa(F),88
B4,KD value for FcγRIIaH/KD value for FcγRIIb,human FcγRIIb [8],0.7
same,KD value for FcγRIIaR/KD value for FcγRIIb,human FcγRIIb [9],0.7
B5,KD value for FcγRIIaH/KD value for FcγRIIb,human FcγRIIb [8],0.2
same,KD value for FcγRIIaR/KD value for FcγRIIb,human FcγRIIb [9],0.3
B6,binding result,mouse FcγRIII,no binding
same,binding result,mouse FcγRIIb,no binding
same,binding result,mouse FcγRI,no binding
B7,binding result,mouse FcγRIII,no binding
same,binding result,mouse FcγRIIb,no binding
same,binding result,mouse FcγRI,no binding
